From patent publication US20050271676A1, “Inducing cellular immune responses to human immunodeficiency virus-1 using peptide and nucleic acid compositions” (Epimmune Inc., priority 1993, published 2005)
No end group written: not given here.

Key:
HLA-A*0301 = target: T1, HLA-A*0301 (Homo sapiens, UniProt P04439); assay: purified HLA class I binding assay, A*0301; conditions: for A0301 (HIV A03 Motif Peptides with Binding Information): HIV POL-derived A03 motif peptides, binding value for purified HLA-A*0301, unit not given
T1 construct: endogenous in cells; host or cells: GM3107

HLA-A*1101 = HLA-A*1101 (Homo sapiens, UniProt P04439, A114D/D185E/E176A/F33Y/L180Q/S129P/T187R); assay: purified HLA class I binding assay, A*1101
HLA-B*0702 = target: T2, HLA-B*0702 (Homo sapiens, UniProt P01889); assay: purified HLA class I binding assay, B*0702; conditions: for B*0702 binding (HIV B07 Super Motif Peptides with Binding Information): purified HLA-B*0702, binding value without unit; for B*0702 (binding information): HIV B07 supermotif peptides, binding value for purified HLA-B*0702, unit not given
T2 construct: endogenous in cells; host or cells: GM3107

HLA-A*0201 = HLA-A*0201 (Homo sapiens, UniProt P04439, D140Y/D185E/D98H/E176V/E277Q/G131W/G231S/I119V/I121R/I166T/I218V/L300P/L318F/N151K/N90K/P208A/P217A/Q86G/Q94H/R138H/R169H/T345S); assay: purified HLA class I binding assay, A*0201
[1] = HIV A03 motif peptides, Table XVI, binding value unit not given
[2] = Table IX, HIV A03 super motif peptides, binding value, unit not given
[3] = Table XVI, binding value for purified HLA-A*0301, unit not given
[4] = HIV A11 motif peptides, Table XVII, unit not given
[5] = Table XVII, HIV A11 motif peptides, binding value for A*1101, printed without unit
[6] = Table XVII, HIV A11 motif peptides, binding value A*1101, unit not given
[7] = HIV A03 supermotif peptides, binding value, no unit given
[8] = Table XVI, HIV POL-derived peptides, unit not given
[9] = HIV A03 supermotif peptides, Table IX, unit not given
[10] = HIV A02 Super Motif Peptides with Binding Information, Table VIII, unit not given
[11] = binding value to purified HLA-A*1101 in Table XVII, unit not given
[12] = Table XVII, HIV A11 motif peptides, binding value for purified HLA-A*1101, unit not given

For KIWPSIIKGR, the “A0301 (binding information)” value (HLA-A*0301; [1]) was 0.0770.
In the case of KLVDFRELNK, the “A*0301 binding information” value (HLA-A*0301; [2]) is reported as 0.5100, the “A0301 (binding information, HIV A03 motif peptides)” value (HLA-A*0301; [3]) is reported as 0.5100 and the “A*1101 (binding information)” value (HLA-A*1101; [4]) is reported as 0.0900. For the same sequence, the “A*1101 (binding information)” value (HLA-A*1101; [2]) was 0.0900.
For KPCVKLTPLC, the “B*0702 binding (HIV B07 Super Motif Peptides with Binding Information)” value (shortened to “B*0702 binding”) (HLA-B*0702) was 0.0004.
For KTKGIIRGSII, the “A*1101 (binding information)” value (HLA-A*1101; [5]) was 0.0001.
KVKQWPLTEE was tested, and the “A0301 (HIV A03 Motif Peptides with Binding Information)” value (HLA-A*0301) was 0.0750 and the “A*1101 (binding information)” value (HLA-A*1101; [6]) was 0.0330.
Work on KVYLAWVPAII yielded an A0301 binding (HLA-A*0301; HIV A03 motif peptides, Table XVI, column A0301, unit not given) of 8.6000.
In the case of KVYLAWVPAIIK, the “A*0301 binding information” value (HLA-A*0301; [7]) is reported as 8.6000 and the “A*1101 (binding information)” value (HLA-A*1101; [7]) is reported as 2.3000.
For LGIIQAQVDK, the “A0301 (binding information, HIV A03 motif peptides)” value (HLA-A*0301; [8]) was 0.0007.
With LGIPIIPAGLK the “A*1101 (binding information)” value (HLA-A*1101; [6]) was 0.0150.
LLQLIVWGIK was tested, and the “A*0301 binding information” value (HLA-A*0301; [9]) was 0.0055 and the “A*1101 (binding information)” value (HLA-A*1101; [9]) was 0.0110.
LPEKDSWTV was tested, and the “B*0702 (binding information)” value (HLA-B*0702) was 0.0001.
For LPGRWKPKM, the “B*0702 (binding information)” value (HLA-B*0702) was 0.0038.
In the case of LPQGWKGSPA, the “B*0702 (binding information)” value (HLA-B*0702) is reported as 0.0120.
For LTEDRWNKPQ, the “A0301 (binding information)” value (HLA-A*0301; HIV A03 motif peptides, Table XVI, unit not given) was 0.0390 and the “A*1101 (binding information)” value (HLA-A*1101; [5]) was 0.0130.
For LVITFYWGL, the “A*0201 (HIV A02 Super Motif Peptides with Binding Information)” value (HLA-A*0201; binding value for purified HLA-A*0201 as printed in Table VIII, unit not given) was 0.0031.
LYSAGIRK was tested, and the “A*1101 (HIV A11 Motif Peptides with Binding Information)” value (HLA-A*1101; binding to purified HLA-A*1101, unit not given) was 0.0054.
LYSAGIRKYL was tested, and the “A*0201 (binding information)” value (HLA-A*0201; Table VIII, HIV A02 supermotif peptides, unit not given) was 0.0002.
With MGYELIIPDK the “A0301 (binding information, HIV A03 motif peptides)” value (HLA-A*0301; [3]) was 0.0640.
For MLNTVGGIIQA, the “A*0201 binding (HIV A02 Super Motif Peptides with Binding Information)” value (HLA-A*0201; purified HLA-A*0201, unit not given) was 0.0022 and the “A0301 (binding information)” value (HLA-A*0301; HIV A03 motif peptides, Table XVI, binding value to purified HLA-A*0301, unit not given) was 0.0005.
In the case of MTKILIEPFR, the “A*1101 (binding information)” value (HLA-A*1101; [6]) is reported as 0.0160.
With MVEQMIIEDI the “A*0201 (binding information)” value (HLA-A*0201; [10]) was 0.0002.
For MVEQMIIEDII, the “A*0201 (binding information)” value (HLA-A*0201; HIV A02 super motif peptides, Table VIII, unit not given) was 0.0001.
For MVIIQAISPR, the “A0301 (binding information)” value (HLA-A*0301; [1]) was 0.1800 and the “A*1101 binding” value (HLA-A*1101; HIV A11 motif peptides (GAG), Table XVII, unit not given) was 0.0670.
In the case of NPDIVIYQYM, the “B*0702 (binding information)” value (HLA-B*0702) is reported as 0.0005.
For NPQSQGVVES, the “B*0702 (binding information)” value (HLA-B*0702) was 0.0001.
In the case of NTPVPAIK, the “A*1101 (HIV A11 Motif Peptides with Binding Information)” value (HLA-A*1101; [11]) is reported as 0.0003.
In the case of NVWAIIIACV, the “A*0201 (binding information)” value (HLA-A*0201; [10]) is reported as 0.0002.
In the case of PCIMDGPKVK, the “A*1101 (binding information)” value (HLA-A*1101; [6]) is reported as 0.0001.
QIYQEPPKNLK was tested, and the “A*0301 binding information” value (HLA-A*0301; [7]) was 0.2800 and the “A*1101 (binding information)” value (HLA-A*1101; [7]) was 0.2900.
For QIYQIEPFKNLK, the “A0301 (binding information, HIV A03 motif peptides)” value (HLA-A*0301; [8]) was 0.2800.
In the case of QLDCTIILEGK, the “A0301 (binding information, HIV A03 motif peptides)” value (HLA-A*0301; [3]) is reported as 0.0010 and the “A*1101 (binding information)” value (HLA-A*1101; [6]) is reported as 0.0003.
For QMIIEDIISL, the “A*0201 (binding information)” value (HLA-A*0201; [10]) was 0.0023.
For QPDKSESEIV, the “B*0702 (binding information)” value (HLA-B*0702) was 0.0002.
With QVRDQAEIILK the “A0301 (HIV A03 Motif Peptides with Binding Information)” value (HLA-A*0301) was 0.0089.
RIVELLGRR [1273.04] gave an IC50 (HLA-A*0301) of 200 nM and an IC50 (HLA-A*1101) of 600 nM.
SDLEIGQIIR was tested, and the “A*1101 (binding information)” value (HLA-A*1101; [6]) was 0.0001.
SPRTLNAWYK was tested, and the “B*0702 binding” value (HLA-B*0702) was 0.0076.
In the case of SPTRKELQVW, the “B*0702 (binding information)” value (HLA-B*0702) is reported as 0.0025.
In the case of STVQCTIIGI, the “A*0201 (binding information)” value (HLA-A*0201; [10]) is reported as 0.001.
With TACQGVGGPG the “A0301 (binding information)” value (HLA-A*0301; [1]) was 0.0001 and the “A*1101 (binding information)” value (HLA-A*1101; [4]) was 0.0001.
TAVQMAVFIII was tested, and the “A0301 (binding information, HIV A03 motif peptides)” value (HLA-A*0301; [3]) was 0.0004 and the “A*1101 (binding information)” value (HLA-A*1101; [6]) was 0.0110.
For TPGIRYQYNV, the “B*0702 (binding information)” value (HLA-B*0702) was 0.0004.
In the case of TPPLVKLWYQ, the “B*0702 (binding information)” value (HLA-B*0702) is reported as 0.0001.
With TTPDKKIIQK the “A0301 (HIV A03 Motif Peptides with Binding Information)” value (HLA-A*0301) was 0.0002.
With TYQCTIIGIK the “A*1101 (binding information)” value (HLA-A*1101; [12]) was 0.0460.
With VASCDKCQLK the “A0301 (HIV A03 Motif Peptides with Binding Information)” value (HLA-A*0301) was 0.0004, the “A*0301 binding information” value (HLA-A*0301; [2]) was 0.0004 and the “A*1101 (binding information)” value (HLA-A*1101; [2]) was 0.0004. For the same sequence, the “A*1101 (binding information)” value (HLA-A*1101; [6]) was 0.0004.
For VAVIIVASGY, the “A0301 (binding information, HIV A03 motif peptides)” value (HLA-A*0301; [3]) was 0.0004 and the “A*1101 (binding information)” value (HLA-A*1101; [6]) was 0.0001.
In the case of VIQDNSEIKV, the “A*0201 binding” value (HLA-A*0201; HIV A02 supermotif peptides, Table VIII, binding value with unit not given) is reported as 0.0013.
In the case of VPIDPNPQEV, the “B*0702 binding” value (HLA-B*0702) is reported as 0.0008.
With VPLDKDFRKY the “B*0702 (binding information)” value (HLA-B*0702) was 0.0002.
In the case of VPRRKAKII, the “B*0702 (binding information)” value (HLA-B*0702) is reported as 0.4800.
With VPVWKEATTT the “B*0702 binding” value (HLA-B*0702) was 0.0022.
VTVYYGVPVW was tested, and the “A0301 (binding information, HIV A03 motif peptides)” value (HLA-A*0301; purified HLA-A*0301 binding value as printed in Table XVI, unit not given) was 0.8600 and the “A*1101 (binding information)” value (HLA-A*1101; [12]) was 4.1000.
With WATIIACVPT the “A*0201 (binding information)” value (HLA-A*0201; [10]) was 0.0002.
In the case of WTVQVIPLPEK, the “A0301 (binding information)” value (HLA-A*0301; HIV A03 motif peptides, binding value to HLA-A*0301 as printed, no unit given) is reported as 0.0011.
With WTYQIYQEPF the “A0301 (binding information, HIV A03 motif peptides)” value (HLA-A*0301; [8]) was 0.9200 and the “A*1101 (HIV A11 Motif Peptides with Binding Information)” value (HLA-A*1101; [11]) was 0.0540.
YVDRIFYKTLR was tested, and the “A*0301 binding information” value (HLA-A*0301; [9]) was 0.0003 and the “A*1101 (binding information)” value (HLA-A*1101; [9]) was 0.0006.
